# T1: RESTV GPdTM (Reston virus (RESTV), UniProt Q66799 34-638)
# T1 sequence: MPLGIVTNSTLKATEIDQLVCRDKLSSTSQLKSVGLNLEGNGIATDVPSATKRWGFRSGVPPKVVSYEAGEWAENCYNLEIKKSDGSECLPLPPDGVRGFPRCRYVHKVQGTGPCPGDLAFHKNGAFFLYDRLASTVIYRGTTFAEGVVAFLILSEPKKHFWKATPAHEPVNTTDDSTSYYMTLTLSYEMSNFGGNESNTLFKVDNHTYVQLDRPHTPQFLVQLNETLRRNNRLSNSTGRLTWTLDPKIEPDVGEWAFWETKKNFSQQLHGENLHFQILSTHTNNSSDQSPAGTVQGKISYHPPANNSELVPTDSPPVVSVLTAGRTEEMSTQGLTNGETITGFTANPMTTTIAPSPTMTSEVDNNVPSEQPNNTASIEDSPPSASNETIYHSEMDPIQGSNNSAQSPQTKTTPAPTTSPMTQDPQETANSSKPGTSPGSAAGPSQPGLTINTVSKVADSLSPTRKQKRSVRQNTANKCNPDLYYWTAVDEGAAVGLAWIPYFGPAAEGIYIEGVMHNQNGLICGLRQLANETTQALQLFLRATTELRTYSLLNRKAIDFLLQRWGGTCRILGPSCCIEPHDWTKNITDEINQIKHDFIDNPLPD
# T2: EBOV GPdTM (Ebola virus (EBOV), UniProt Q05320 33-637)
# T2 sequence: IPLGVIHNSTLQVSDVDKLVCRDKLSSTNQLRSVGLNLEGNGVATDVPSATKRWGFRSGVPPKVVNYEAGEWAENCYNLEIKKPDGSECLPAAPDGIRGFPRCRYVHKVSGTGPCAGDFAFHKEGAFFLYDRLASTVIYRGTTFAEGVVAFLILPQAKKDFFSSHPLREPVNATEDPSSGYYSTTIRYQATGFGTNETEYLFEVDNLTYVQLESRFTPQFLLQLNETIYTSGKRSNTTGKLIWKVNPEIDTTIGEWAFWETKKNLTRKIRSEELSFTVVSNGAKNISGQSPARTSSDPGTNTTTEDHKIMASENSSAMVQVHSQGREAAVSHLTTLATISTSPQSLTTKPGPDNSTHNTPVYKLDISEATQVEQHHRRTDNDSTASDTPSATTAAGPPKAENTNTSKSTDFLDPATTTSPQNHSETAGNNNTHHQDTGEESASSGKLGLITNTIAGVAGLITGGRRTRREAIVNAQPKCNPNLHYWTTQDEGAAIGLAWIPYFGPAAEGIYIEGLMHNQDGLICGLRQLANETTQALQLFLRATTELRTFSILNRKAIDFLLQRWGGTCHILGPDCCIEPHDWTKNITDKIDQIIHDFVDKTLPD
# T3: MARV GPdTM (Marburg virus (MARV), UniProt P35253 19-637)
# T3 construct: also called Marburg virus glycoprotein GPdTM
# T3 sequence: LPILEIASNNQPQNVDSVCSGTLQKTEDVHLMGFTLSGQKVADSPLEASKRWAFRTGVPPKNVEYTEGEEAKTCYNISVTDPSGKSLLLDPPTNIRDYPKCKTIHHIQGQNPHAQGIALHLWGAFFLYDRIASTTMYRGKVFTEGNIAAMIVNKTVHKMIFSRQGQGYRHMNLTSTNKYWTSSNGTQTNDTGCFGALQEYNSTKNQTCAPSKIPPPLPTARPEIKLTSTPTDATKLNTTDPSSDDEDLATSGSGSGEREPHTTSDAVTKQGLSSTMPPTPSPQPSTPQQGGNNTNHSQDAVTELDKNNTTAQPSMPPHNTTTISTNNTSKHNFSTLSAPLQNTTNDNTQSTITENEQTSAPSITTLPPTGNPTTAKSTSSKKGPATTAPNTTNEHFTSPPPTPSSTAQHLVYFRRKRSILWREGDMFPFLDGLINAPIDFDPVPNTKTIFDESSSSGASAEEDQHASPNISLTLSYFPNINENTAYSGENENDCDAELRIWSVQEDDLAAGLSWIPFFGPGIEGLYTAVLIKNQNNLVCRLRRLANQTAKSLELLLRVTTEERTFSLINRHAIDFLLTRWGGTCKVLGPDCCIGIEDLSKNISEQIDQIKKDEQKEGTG
# B1: murine monoclonal antibody 17C6 (antibody, V domains shown)
# VH: EVQLQESGPGLVQPSQSLSITCTVSGFSLTSYGVHWVRQSPGKGLEWLGVIWSGGSTDYNAAFISRLSISKDNSKSQVFFKMNSLQADDTAIYYCARNWFDYDNYYSMDYWGQGTSVTVSS
# VL: DIQMTQTTSSLSASLGDRVTISCRASQDISNYLNWYQQKPDGTVKLLIYYTSRLHSGVPSRFSGSGSGTDFSLTISNQEPEDIATYYCQQYSNLPWTFGGGTKLEIKR
# B2: murine monoclonal antibody 16G8 (antibody, V domains shown)
# VH: EVQLQESGPGLVKPGASVKISCKASGYSFTGYYMNWVKQSPEKSLEWIGEINPSTGGTTYNQKFKAKATLTVDKSSSTAYMQLKSLTSEDSAVYYCVRYSHYYGSGSWYFDVWGTGTTVTVSS
# VL: DIQMTQSPASLSASVGETVTITCRASENIYSNLAWYQQKQGKSPQLLVNAATNLADGVPSRFSGSGSGTQFSLKINSLQPEDFGSYYCQHFYVTPYMFGSGTKLEIKR
# notes: also called m16G8
# B3: murine monoclonal antibody 2D8 (antibody, V domains shown)
# VH: EVQLQESGGELVRPGTSVKISCKASGYTFTNFWLGWIKERPGHGLEWIGDIYPGGHYTNYNENFKGKATLTADTSSNTAYMQVSSLTSEDSAVYFCFTQYYDMDYWGQGTSVTVSS
# VL: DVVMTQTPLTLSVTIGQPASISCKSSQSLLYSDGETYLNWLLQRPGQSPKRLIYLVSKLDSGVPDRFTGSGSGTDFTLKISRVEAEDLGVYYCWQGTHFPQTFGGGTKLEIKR
# B4: murine monoclonal antibody 4B8 (antibody, V domains shown)
# VH: EVQLQESGPGILQPSQTLSLTCSFSGFSLRTLGMGVGWIRQSSGKGLEWLAHIWWSDENYYNPALKSRLTISKDTSKNQVFLRIANVDTAETATYYCARIAYDGYFDYWGQGTSLTVSS
# VL: KFPSQLLLLLLFGIPGDRVTITCKASEDIYNRLAWYQQKPGNAPRLLISGATSLETGVPSRFSGSGSGKDYTLSITSLQTEDVATYYCQQYWTTPWTFGGGTKLEIKR
# notes: also called m4B8
# B5: murine monoclonal antibody 8C4 (antibody, V domains shown)
# VH: EVQLQESGPELKKPGETVKISCKASGYTFTTYGMSWVKQAPGKGLKWMGRINTYSGVPTYADEFKGRFAFSLENSASTAYLQINNLKNEDTATYFCARGDGGHWFANWGQGTLVTVSA
# VL: DIQMTQSPSSLSASLGGKVTITCKASQDINKNIAWYQHKPGKGPRLLIWYKSALQPGIPSRFSGSGSGRDYSFSISNLEPEDIATYSCLQYDNLPPTFGGGTKLEIKR
# notes: also called m8C4
# B6: murine monoclonal antibody 21B2 (antibody, V domains shown)
# VH: EVQLQESGAELVRPGASVTLSCKTSGYTFTDYEMHWVKQTPVHGLEWIGAIDPETGGTAYNQKFKGKATLTADKSSSTAYMELSRLTSEDSAVYYCTGNYATDYWGQGTSVTVSS
# VL: DIVMSQSPSSLAVSAGEKVTMSCKSSQSLFNSRSRKNYLAWYQLKPGQSPKLLIYWASTRESGVPDRFTGSGSGTDFTLTISSVQAEDLAVYYCKQSNYLWTFGGGTKLEIKR
# notes: also called m21B2
# Columns and labels:
# RESTV GPdTM [1] = biological target: T1, RESTV GPdTM
# EBOV GPdTM [2] = biological target: T2, EBOV GPdTM
# MARV GPdTM [3] = biological target: T3, MARV GPdTM; test: ELISA, purified GPdTM immobilized, serial dilutions of purified mouse mAb
# MARV GPdTM [4] = biological target: T3, MARV GPdTM
# RESTV GPdTM [5] = biological target: T1, RESTV GPdTM; test: ELISA, purified GPdTM immobilized, serial dilutions of purified mouse mAb
# EBOV GPdTM [6] = biological target: T2, EBOV GPdTM; test: as above
Binder,EC50 (RESTV GPdTM [1]) [µg/mL],EC50 (EBOV GPdTM [2]) [µg/mL],binding result (MARV GPdTM [3]),EC50 (MARV GPdTM [4]) [µg/mL],binding result (RESTV GPdTM [5]),binding result (EBOV GPdTM [6])
B1,1.56,0.04,–,–,–,–
B2,> 10,> 10,no binding,–,–,–
B3,–,> 10,–,0.0445,–,–
B4,0.157,–,no binding,–,–,–
B5,–,0.26,no binding,–,no binding,–
B6,–,–,–,0.0688,–,no binding

# From patent US20180237502A1 (INTEGRATED BIOTHERAPEUTICS, published 2018)
